According to article PMC7112951:

Tests used:
[1] = target: E. coli ClpP (residues 1-193 of mature ClpP), tag removed, used for cryo-EM (Escherichia coli); test: cryo-EM structure; ClpX^∆N pseudohexamer 4 µM and ClpP14 1.8 µM (2 µM in the results) in EM buffer (20 mM HEPES, pH 7.5, 100 mM KCl, 25 mM MgCl2, 5 mM ATPγS), 5 min at 25°C before vitrification; doubly capped complexes analysed
[2] = target: [RKH2-AAA]2 single-chain ClpX^ΔN pseudohexamer (Escherichia coli) (UniProt P0A6H1)

| stoichiometry N [1] | KM for steady-state degradation of ^CP7GFP-ssrA, against the parent pseudohexamer [2] [fold] | Substance |
| --- | --- | --- |
| 14 |  | E. coli ClpP (residues 1-193 of mature ClpP), tag removed, used for cryo-EM (enzyme) |
|  | 3 | ^cp7GFP-ssrA |
